Laboratory results taken from article doi:10.1101/805184 (bioRxiv, 2019).

T1: Swi3 (S. cerevisiae, UniProt P32591 1-825)
T1 sequence: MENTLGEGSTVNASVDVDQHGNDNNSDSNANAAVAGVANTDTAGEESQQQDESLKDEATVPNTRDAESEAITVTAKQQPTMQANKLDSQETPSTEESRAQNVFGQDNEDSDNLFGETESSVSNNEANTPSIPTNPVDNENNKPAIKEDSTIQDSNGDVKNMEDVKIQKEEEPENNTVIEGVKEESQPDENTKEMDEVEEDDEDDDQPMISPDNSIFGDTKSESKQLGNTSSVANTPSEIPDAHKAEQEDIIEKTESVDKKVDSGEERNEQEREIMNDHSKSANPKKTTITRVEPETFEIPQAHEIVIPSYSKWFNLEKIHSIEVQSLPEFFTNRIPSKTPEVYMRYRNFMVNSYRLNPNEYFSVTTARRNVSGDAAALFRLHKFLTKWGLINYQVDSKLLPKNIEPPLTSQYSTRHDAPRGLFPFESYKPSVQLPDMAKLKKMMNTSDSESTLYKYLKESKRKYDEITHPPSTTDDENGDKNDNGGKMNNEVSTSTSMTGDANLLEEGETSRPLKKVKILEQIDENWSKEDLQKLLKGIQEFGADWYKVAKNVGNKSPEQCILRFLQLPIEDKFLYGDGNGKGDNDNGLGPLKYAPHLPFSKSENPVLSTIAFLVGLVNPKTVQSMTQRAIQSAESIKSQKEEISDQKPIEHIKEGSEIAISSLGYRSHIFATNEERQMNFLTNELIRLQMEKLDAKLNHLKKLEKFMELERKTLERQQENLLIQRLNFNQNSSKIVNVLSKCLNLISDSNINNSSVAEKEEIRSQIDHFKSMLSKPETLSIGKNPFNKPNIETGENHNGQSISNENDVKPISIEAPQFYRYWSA

B1: Arp9 (natural protein)
chain: MAPFRQDSILIIYPRSQTTLVQFGLNEETFTVPELEIPTQIYRTTRQDGSYTYHSTNKDNKAELIKPIQNGEIIDISAFTQFLRLIFVSILSDRANKNQDAFEAELSNIPLLLITHHSWSQSDLEIITQYVFESLEINNLIQLPASLAATYSMISLQNCCIIDVGTHHTDIIPIVDYAQLDHLVSSIPMGGQSINDSLKKLLPQWDDDQIESLKKSPIFEVLSDDAKKLSSFDFGNENEDEDEGTLNVAEIITSGRDTREVLEERERGQKVKNVKNSDLEFNTFWDEKGNEIKVGKQRFQGCNNLIKNISNRVGLTLDNIDDINKAKAVWENIIIVGGTTSISGFKEALLGQLLKDHLIIEPEEEKSKREEEAKSVLPAATKKKSKFMTNSTAFVPTIEYVQCPTVIKLAKYPDYFPEWKKSGYSEIIFLGAQIVSKQIFTHPKDTFYITREKYNMKGPAALWDVQF
B2: Snf5 (natural protein)
chain: MNNQPQGTNSVPNSIGNIFSNIGTPSFNMAQIPQQLYQSLTPQQLQMIQQRHQQLLRSRLQQQQQQQQQTSPPPQTHQSPPPPPQQSQPIANQSATSTPPPPPAPHNLHPQIGQVPLAPAPINLPPQIAQLPLATQQQVLNKLRQQAIAKNNPQVVNAITVAQQQVQRQIEQQKGQQTAQTQLEQQRQLLVQQQQQQQLRNQIQRQQQQQFRHHVQIQQQQQKQQQQQQQHQQQQQQQQQQQQQQQQQQQQQQQQQQQQQQQQQQQQQGQIPQSQQVPQVRSMSGQPPTNVQPTIGQLPQLPKLNLPKYQTIQYDPPETKLPYPTYWSDKKADTDTLLYEQIIQRDKINKYSLIRETNGYDPFSIYGFSNKEYISRLWHTLKYYQDLKNTRMKSITSTSQKIPSASIWGNGYSGYGNGITNTTTRVIPQVEVGNRKHYLEDKLKVYKQAMNETSEQLVPIRLEFDQDRDRFFLRDTLLWNKNDKLIKIEDFVDDMLRDYRFEDATREQHIDTICQSIQEQIQEFQGNPYIELNQDRLGGDDLRIRIKLDIVVGQNQLIDQFEWDISNSDNCPEEFAESMCQELELPGEFVTAIAHSIREQVHMYHKSLALLGYNFDGSAIEDDDIRSRMLPTITLDDVYRPAAESKIFTPNLLQISAAELERLDKDKDRDTRRKRRQGRSNRRGMLALSGTSASNTSMNGVHNTVAAGNASSLPPGEILLPDIADIPRTFRTPVPSTLMPGGVDVGPSVESYELRNTTTYKSRPDRPKPVSPPCYIIDHIPGHSLLLSIKLPGKVNTKEEFAAAPNDTSSGTNAMLPSPESLKTKLNSNIRAGVTIPSIPNPIANHTVTNSPNPTLQPVIPGGAASKSVPTPSLPIAPPVAPHDSEATLLTNSNNGSSNNNTQNT
B3: Rtt102 (natural protein)
chain: MDPQTLITKANKVSYYGNPTSKESWRYDWYQPSKVSSNVQQPQQQLGDMENNLEKYPFRYKTWLRNQEDEKNLQRESCEDILDLKEFDRRILKKSLMTSHTKGDTSKATGAPSANQGDEALSVDDIRGAVGNSEAIPGLSAGVNNDNTKESKDVKMN
B4: Arp7 (natural protein)
chain: MTLNRKCVVIHNGSHRTVAGFSNVELPQCIIPSSYIKRTDEGGEAEFIFGTYNMIDAAAEKRNGDEVYTLVDSQGLPYNWDALEMQWRYLYDTQLKVSPEELPLVITMPATNGKPDMAILERYYELAFDKLNVPVFQIVIEPLAIALSMGKSSAFVIDIGASGCNVTPIIDGIVVKNAVVRSKFGGDFLDFQVHERLAPLIKEENDMENMADEQKRSTDVWYEASTWIQQFKSTMLQVSEKDLFELERYYKEQADIYAKQQEQLKQMDQQLQYTALTGSPNNPLVQKKNFLFKPLNKTLTLDLKECYQFAEYLFKPQLISDKFSPEDGLGPLMAKSVKKAGASINSMKANTSTNPNGLGTSHINTNVGDNNSTASSSNISPEQVYSLLLTNVIITGSTSLIEGMEQRIIKELSIRFPQYKLTTFANQVMMDRKIQGWLGALTMANLPSWSLGKWYSKEDYETLKRDRKQSQATNATN
B5: Snf12 (natural protein)
chain: MSKVMKPSNGKGSRKSSKAATPDTKNFFHAKKKDPVNQDKANNASQITPTVPHSHPSDMVIPDHLAELIPELYSFQQLVDSEKRLDHFIHLRNLHMKRMVAQWERSKLSQEFLYPHLNFPNVKFLRIFISNVSENQPWQMDTNNEADLMALENATWTMRIEGRLLDNVQANDPAREKFSSFIESIVVDFKNKENDNVPSTKFNAAPEENATEGPSDKKLNLNLPLQFSLPNGDNSTTTNTDQNNATMGEETAKKDMSSTTPKLESVKWQYDPNNPVDFDGLDIKRVGSENVECTISILRKSSPEEPFMSYSPQLTAIIGLKSGTSHDAIFSIYKYIHLNELLTNDESAFENLMGNRNNHNSNTSTSKMLDAASSQVSIVKLDTQLITLLPSSLKESSPDTMKLTDLLSLINSTHLLPLQPIEIDYTVRVDKASTYGELVLDIEVPDVNALKFNNTQRESQIGAAELNENARELEQIKPKIALQDKEITSVLSNLHESNKRYRFFKKISEDPVKALNECIASTSNALKVLSGDEGYNEDMVRRANFYKENEAMLRENIEVILSNGRM
B6: Swi1 (natural protein)
chain: MDFFNLNNNNNNNNTTTTTTTTNNNNTNNNNTNNNNNPANNTNNNNSTGHSSNTNNNTNNNNTNTGASGVDDFQNFFDPKPFDQNLDSNNNNSNSNNNDNNNSNTVASSTNFTSPTAVVNNAAPANVTGGKAANFIQNQSPQFNSPYDSNNSNTNLNSLSPQAILAKNSIIDSSNLPLQAQQQLYGGNNNNNSTGIANDNVITPHFITNVQSISQNSSSSTPNTNSNSTPNANQQFLPFNNSASNNGNLTSNQLISNYAASNSMDRSSSASNEFVPNTSDNNNNSNNHNMRNNSNNKTSNNNNVTAVPAATPANTNNSTSNANTVFSERAAMFAALQQKQQQRFQALQQQQQQQQNQQQQNQQPQQQQQQQQNPKFLQSQRQQQQRSILQSLNPALQEKISTELNNKQYELFMKSLIENCKKRNMPLQSIPEIGNRKINLFYLYMLVQKFGGADQVTRTQQWSMVAQRLQISDYQQLESIYFRILLPYERHMISQEGIKETQAKRIFLQQFLQELLKKVQQQQQAAALANANNNINSASSAPTPAAPGASVPATAAPGTEAGIVPVSANTPKSLNSNININVNNNNIGQQQVKKPRKQRVKKKTKKELELERKEREDFQKRQQKLLEDQQRQQKLLLETKLRQQYEIELKKLPKVYKRSIVRNYKPLINRLKHYNGYDINYISKIGEKIDSNKPIFLFAPELGAINLHALSMSLQSKNLGEINTALNTLLVTSADSNLKISLVKYPELLDSLAILGMNLLSNLSQNVVPYHRNTSDYYYEDAGSNQYYVTQHDKMVDKIFEKVNNNATLTPNDSNDEKVTILVDSLTGNQLPTPTPTEMEPDLDTECFISMQSTSPAVKQWDLLPEPIRFLPNQFPLKIHRTPYLTSLKKIKDEIDDPFTKINTRGAEDPKVLINDQLSTISMILRNISFSDNNSRIMSRNFYLKRFISDLLWLVLIHPENFTCNRKILNFKKDLVIVLSNISHLLEIASSIDCLLILILVISFGQPKLNPMASSSSFGSESLTFNEFQLQWGKYQTFGVDILAKLFSLEKPNLNYFKSILLNKNTGNNLYDRNSNNNHKDKKLLRRLLNLYNDNNKNNNNRHNLLNDVVSFLFSAIPLQQVLSQSADPSLLIDQFSPVISQSLTSILVIVQKILPLSNEVFEISENNSDSNSNNNGNKDSSFNFNKNLPFVWLSSEENIGSGLLKLSEIILNINNSTSKNTLLQQQNYSKVLLPSINISCVQLIKCLVEKSICFENCLNNDPEILKKIASIPNLFPTDLEIFQLFTNPSVDIQIINQYQLLYNLKNDILTNLE

Tests used:
Assay in all cases: cryo-EM structure
Snf2 = Snf2 (S. cerevisiae, UniProt P22082 1-1703)
Swi1 = target: B6
Swi3 = target: T1, Swi3

Snf2, sequence (P22082 whole entry): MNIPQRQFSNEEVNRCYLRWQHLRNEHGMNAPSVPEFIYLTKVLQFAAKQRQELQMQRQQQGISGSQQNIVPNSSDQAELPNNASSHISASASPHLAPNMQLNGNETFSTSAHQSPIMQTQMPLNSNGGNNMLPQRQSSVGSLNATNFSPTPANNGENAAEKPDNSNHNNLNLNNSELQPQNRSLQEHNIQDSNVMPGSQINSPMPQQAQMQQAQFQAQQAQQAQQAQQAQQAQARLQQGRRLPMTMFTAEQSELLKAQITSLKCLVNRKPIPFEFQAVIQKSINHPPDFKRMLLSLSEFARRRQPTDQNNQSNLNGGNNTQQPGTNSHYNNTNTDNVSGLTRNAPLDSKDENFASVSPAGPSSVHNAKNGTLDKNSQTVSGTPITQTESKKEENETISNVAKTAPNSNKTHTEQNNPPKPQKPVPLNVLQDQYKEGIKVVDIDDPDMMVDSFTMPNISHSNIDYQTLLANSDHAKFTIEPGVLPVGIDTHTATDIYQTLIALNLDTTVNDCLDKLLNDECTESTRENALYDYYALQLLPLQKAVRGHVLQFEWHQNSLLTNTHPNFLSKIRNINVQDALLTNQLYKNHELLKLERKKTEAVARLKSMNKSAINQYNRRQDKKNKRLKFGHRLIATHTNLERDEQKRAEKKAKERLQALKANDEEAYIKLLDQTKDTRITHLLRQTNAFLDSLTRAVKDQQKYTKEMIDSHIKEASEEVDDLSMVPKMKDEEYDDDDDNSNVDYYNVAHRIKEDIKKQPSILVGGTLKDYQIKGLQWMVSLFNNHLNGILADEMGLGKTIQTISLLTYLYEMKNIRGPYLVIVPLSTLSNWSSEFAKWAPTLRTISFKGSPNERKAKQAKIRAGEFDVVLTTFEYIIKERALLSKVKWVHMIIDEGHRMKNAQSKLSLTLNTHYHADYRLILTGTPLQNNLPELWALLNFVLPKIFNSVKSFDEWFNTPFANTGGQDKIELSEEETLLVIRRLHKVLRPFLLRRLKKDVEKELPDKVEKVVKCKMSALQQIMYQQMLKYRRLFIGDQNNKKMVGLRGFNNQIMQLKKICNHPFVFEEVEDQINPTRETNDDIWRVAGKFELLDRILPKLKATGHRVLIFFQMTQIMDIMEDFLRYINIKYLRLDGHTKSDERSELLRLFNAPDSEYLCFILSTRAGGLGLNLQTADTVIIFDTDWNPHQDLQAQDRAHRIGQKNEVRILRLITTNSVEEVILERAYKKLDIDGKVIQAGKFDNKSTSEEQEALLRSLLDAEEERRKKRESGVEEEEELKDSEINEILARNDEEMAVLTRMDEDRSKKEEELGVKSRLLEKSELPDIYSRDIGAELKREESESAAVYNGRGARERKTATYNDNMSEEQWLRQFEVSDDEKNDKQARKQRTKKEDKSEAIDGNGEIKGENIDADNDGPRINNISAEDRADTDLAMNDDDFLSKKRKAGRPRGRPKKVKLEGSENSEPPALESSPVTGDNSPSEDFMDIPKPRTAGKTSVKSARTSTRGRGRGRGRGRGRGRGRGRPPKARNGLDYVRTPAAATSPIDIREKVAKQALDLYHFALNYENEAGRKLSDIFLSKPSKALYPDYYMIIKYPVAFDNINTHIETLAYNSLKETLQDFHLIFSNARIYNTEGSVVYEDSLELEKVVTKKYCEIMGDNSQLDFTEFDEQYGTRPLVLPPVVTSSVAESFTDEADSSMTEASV

Row | binding result (Snf2) | binding result (Swi1) | binding result (Swi3) | Binder
1 | binds | – | – | B1
2 | – | binds | – | B2
3 | binds | – | – | B3
4 | binds | – | – | B4
5 | – | binds | binds | B5
6 | binds | – | – | B6
